A short description of the data set: 35S pulse-chase, HA immunoprecipitation from lysate and media. To be noted: glycan lost; control: wild type Cab45-HA.

B1: Cab45: Cab45-N40G (protein)
parent chain: MVWPWVAMASRWGPLIGLAPCCLWLLGAVLLMDASARPANHSSTRERVANREENEILPPDHLNGVKLEMDGHLNRGFHQEVFLGKDLGGFDEDAEPRRSRRKLMVIFSKVDVNTDRKISAKEMQRWIMEKTAEHFQEAMEESKTHFRAVDPDGDGHVSWDEYKVKFLASKGHSEKEVADAIRLNEELKVDEETQEVLENLKDRWYQADSPPADLLLTEEEFLSFLHPEHSRGMLRFMVKEIVRDLDQDGDKQLSVPEFISLPVGTVENQQGQDIDDNWVKDRKKEFEELIDSNHDGIVTAEELESYMDPMNEYNALNEAKQMIAVADENQNHHLEPEEVLKYSEFFTGSKLVDYARSVHEEF
Turning to B1, the expression_or_secretion result is “no change”.

Values taken from paper PMC9351455.
